From article PMC7103410 come the findings set out here.

The experiment has as its target M116, the C-terminal 116 amino acids of SARS-CoV membrane (M) protein (recombinant cytoplasmic region) (SARS-CoV). Kind of experiment: SPR.

Regarding N peptide 101–115, the Kd was 730 nM.
